The supplement of paper PMC12338614

B1: library; numbered along this chain (parent)
chain: MEVVDPQQLGMFTEGELMSVGMDTFIHRIDSTEVIYQPRRKRAKLIGKYLMGDLLGEGSYGKVKEVLDSETLCRRAVKILKKKKLRRIPNGEANVKKEIQLLRRLRHKNVIQLVDVLYNEEKQKMYMVMEYCVCGMQEMLDSVPEKRFPVCQAHGYFCQLIDGLEYLHSQGIVHKDIKPGNLLLTTGGTLKISDLGVAEALHPFAADDTCRTSQGSPAFQPPEIANGLDTFSGFKVDIWSAGVTLYNITTGLYPFEGDNIYKLFENIGKGSYAIPGDCGPPLSDLLKGMLEYEPAKRFSIRQIRQHSWFRKKHPPAEAPVPIPPSPDTKDRWRSMTVVPYLEDLHGADEDEDLFDIEDDIIYTQDFTVPGQVPEEEASHNGQRRGLPKAVCMNGTEAAQLSTKSRAEGRAPNPARKACSASSKIRRLSACKQQ

Variants of: B1
Experiment: STK11 functional score (HeLa growth suppression), rescaled enrichment; synonymous median = 1, nonsense median = 0 (normalised score)
Conditions: with HeLa; variant type: missense
Method in brief: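 In HeLa, Bxb1 integrated POPCode codon-randomised libraries of codon-optimised STK11 at an AAVS1 landing pad; three regions were each transfected three times. Integrants, marked as BFP-negative and mCherry-positive, were FACS-sorted 4–5 days after electroporation and expanded for about two weeks before tiled gDNA amplicons were sequenced on NextSeq (~2 million reads per tile). Each functional score is a post/pre-selection log ratio corrected to wild type, rescaled to the synonymous and nonsense medians, and merged across codons and replicate transfections, with error estimated by bootstrapping.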

STK11 functional score, by site and new letter:
F148: H -0.00697; A 0.105; W 0.336; C 0.493; E 0.147; D -0.396; N 0.0347; P -0.111; R -0.0906; G -0.0254; Y 0.892; M 1.3; S -0.139; K -0.033; L 0.829; T -0.101; Q 0.0904; I 1.31; V 0.674
C151: N 0.808; L 0.508; K 1.67; Y 1.45; A 1.4; H 0.883; E 0.756; V 1.17; G 0.587; Q 1.54; W 0.903; R 1.07; M 0.331; T 0.991; P 0.45; I 0.722; S 1.13
G155: A 1.27; R 0.742
F157: L 0.19; M 0.503; G -0.101; W 0.714; V -0.0226
K146: Q 1.52; I 0.185; E 1.14; W 0.507; S 1.33; V 0.152; N 1.16; A 1.29; H 1.49; G 0.814; R 1.58; D 0.483; L 1.13
E145: V 0.644; I 1.14; G 0.981; H 1.31; W 1.41; L 1.16; T 1.54; P 1.36; Y 1.12; N 1.46; M 1.3; R 1.21; Q 1.29; S 1.45
C158: R 1.49; L 0.856; V 0.897; I 1.51; S 0.627; H 1.53; A 1.37; G 0.418; M -0.0261
A153: L 0.0918; G 1.13; W -0.261; F 0.0706; R 0.204; Y -0.0988; V 0.499; I 0.28; D -0.157; M -0.195; P -0.338; E 0.243
P149: R 0.413; L 0.561; D 0.598; I 0.249; A 1.18; G 0.926; Y -0.0036; V 0.694; W 0.608; C 0.957; N 1.38; M 1.02; E 1.52; S 0.988
R147: D -0.33; A 0.87; G 1.07; C 1.26; I 1.22; T -0.149; Q 0.506; E -0.0954; F 0.668; P 0.188; L 0.461; Y 1.47; V 0.547; S 0.855; M 1.06; W 0.777
V150: Q 0.265; S 0.347; G 0.594; C 0.762; K 1.36; A 0.104; L 0.401; P 0.992; R 1.17; H 1.26; W 0.631; T 0.385
Y156: I 1.04; E 1.15; G 0.044; Q 0.148; A 0.114; L 1.34; P 0.418; W 0.28; M 1.69; V 1.06; D 0.293; S 0.762; C 0.324; F 1.27; T 1.13
H154: G 0.183; S 0.47; I 0.492; Y 1.26; P -0.204; M 0.597; A 1.49; W 0.87; L 0.189; V 0.314; R 0.997; F 0.39; N 0.196
Q152: C 1.26; L 0.195; S 0.733; E 0.844; P 0.0642; V 1.19
